Measurements published in paper PMC9870916, “The mitochondrial inhibitor IF1 binds to the ATP synthase OSCP subunit and protects cancer cells from apoptosis” (Cell Death & Disease, 2023).

Target: T1, OSCP-NT (R6-G114) (human, UniProt P48047 29-137)
T1 construct: Used unlabelled (added in excess) or 15N-labelled (observed); cleavage leaves no additional residues; also called N-terminal domain of OSCP; source: E. coli BL21(DE3), purified (Ni-HisTrap, Ulp1 cleavage, cation exchange, Superdex 75); not shown: His6-SUMO, N-terminal, cleaved
T1 sequence (looked up): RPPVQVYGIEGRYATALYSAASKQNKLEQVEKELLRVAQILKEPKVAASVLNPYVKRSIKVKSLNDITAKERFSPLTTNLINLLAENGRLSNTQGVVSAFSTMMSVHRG
Assay: NMR titration; 1H-15N SOFAST-HMQC of 15N-labelled IF1-NT without and with 15-fold molar excess of unlabelled OSCP-NT or OSCP-CT; for OSCP-NT: 30 μM IF1-NT, 450 μM OSCP-NT, 50 mM phosphate, 300 mM NaCl, pH 7.0, 7 °C
Settings: both partners purified

B1: IF1-NT (G1-E40) (domain or fragment, human, UniProt Q9UII2 26-65, looked up)
chain: GSDQSENVDRGAGSIREAGGAFGKREQAEEERYFRAQSRE
notes: Used 15N-labelled (observed) or unlabelled (added in excess); cleavage leaves no additional residues; also called IF1-1NT; N-terminal domain of IF1; source: E. coli BL21(DE3), purified (Ni-HisTrap, Ulp1 cleavage, second Ni-HisTrap, Superdex 75); not shown: His6-SUMO, N-terminal, cleaved
  binding result: binds
